T1: SNAP-tagged FUS (Fused in sarcoma), P35637
T1 chain: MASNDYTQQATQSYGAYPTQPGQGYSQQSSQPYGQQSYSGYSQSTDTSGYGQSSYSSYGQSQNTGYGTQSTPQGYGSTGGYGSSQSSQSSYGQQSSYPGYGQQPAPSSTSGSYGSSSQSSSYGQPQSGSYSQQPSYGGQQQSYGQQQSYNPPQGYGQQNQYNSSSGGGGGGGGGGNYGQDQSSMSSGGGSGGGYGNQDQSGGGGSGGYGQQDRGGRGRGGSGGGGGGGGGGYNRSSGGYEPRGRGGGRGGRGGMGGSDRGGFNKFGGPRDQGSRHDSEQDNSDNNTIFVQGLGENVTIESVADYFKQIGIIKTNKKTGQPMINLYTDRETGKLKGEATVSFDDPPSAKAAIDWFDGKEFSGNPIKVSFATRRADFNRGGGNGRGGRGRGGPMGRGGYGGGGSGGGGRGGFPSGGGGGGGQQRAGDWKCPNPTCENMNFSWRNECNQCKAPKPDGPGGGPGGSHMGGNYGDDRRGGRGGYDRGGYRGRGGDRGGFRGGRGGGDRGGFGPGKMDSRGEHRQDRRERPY

T2: untagged FUS (Fused in sarcoma), P35637
T2 chain: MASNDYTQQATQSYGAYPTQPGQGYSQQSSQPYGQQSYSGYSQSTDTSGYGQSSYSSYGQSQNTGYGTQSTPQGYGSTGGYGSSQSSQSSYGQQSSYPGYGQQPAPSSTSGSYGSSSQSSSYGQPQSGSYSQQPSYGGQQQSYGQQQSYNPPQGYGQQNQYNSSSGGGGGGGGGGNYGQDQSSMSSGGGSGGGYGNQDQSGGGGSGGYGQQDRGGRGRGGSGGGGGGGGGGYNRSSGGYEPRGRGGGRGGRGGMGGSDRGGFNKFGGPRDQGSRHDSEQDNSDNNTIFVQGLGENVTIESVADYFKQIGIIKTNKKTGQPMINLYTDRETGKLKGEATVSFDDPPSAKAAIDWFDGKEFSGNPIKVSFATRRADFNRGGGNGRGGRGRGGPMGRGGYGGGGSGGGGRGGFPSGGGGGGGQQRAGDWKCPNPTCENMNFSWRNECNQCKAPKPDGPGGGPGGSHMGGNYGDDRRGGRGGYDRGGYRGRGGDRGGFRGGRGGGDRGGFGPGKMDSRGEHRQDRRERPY


Tests used:
Conditions in all cases: remark: other sources report otherwise
[1] = biological target: T1, SNAP-tagged FUS (Fused in sarcoma), …; assay: nanoparticle tracking analysis (NTA); mesoscale clusters in sub-saturated solutions; 100 mM KGlu and 100 mM KCl, 25 °C, recorded 6 minutes after sample preparation
[2] = biological target: T1, SNAP-tagged FUS (Fused in sarcoma), …; assay: dynamic light scattering (DLS); derived count rate and size distributions in sub-saturated solutions; 20 mM Tris.Glu pH 7.4, 100 mM KGlu (with residual KCl from the stock), 25 °C; self-association into clusters
[3] = biological target: T2, untagged FUS (Fused in sarcoma), P35637; assay: nanoparticle tracking analysis (NTA); mesoscale clusters in sub-saturated solutions; 100 mM KGlu and 100 mM KCl, 25 °C, recorded 6 minutes after sample preparation

Binder | abundance of mesoscale clusters in 100 mM KGlu relative to 100 mM KCl [1] | derived count rate in 100 mM KGlu relative to 100 mM KCl [2] | abundance of mesoscale clusters in 100 mM KGlu relative to 100 mM KCl [3]
SNAP-tagged FUS (Fused in sarcoma), P35637 1-526 (natural protein, here or on the partner: Alexa 488 (AF488) or Alexa 647 (AF647) label in the smFRET and FCS experiments; unlabelled elsewhere; Alexa 488 (AF488) or Alexa 647 (AF647) label in the smFRET and FCS experiments; unlabelled elsewhere) MASNDYTQQATQSYGAYPTQPGQGYSQQSSQPYGQQSYSGYSQSTDTSGYGQSSYSSYGQSQNTGYGTQSTPQGYGSTGGYGSSQSSQSSYGQQSSYPGYGQQPAPSSTSGSYGSSSQSSSYGQPQSGSYSQQPSYGGQQQSYGQQQSYNPPQGYGQQNQYNSSSGGGGGGGGGGNYGQDQSSMSSGGGSGGGYGNQDQSGGGGSGGYGQQDRGGRGRGGSGGGGGGGGGGYNRSSGGYEPRGRGGGRGGRGGMGGSDRGGFNKFGGPRDQGSRHDSEQDNSDNNTIFVQGLGENVTIESVADYFKQIGIIKTNKKTGQPMINLYTDRETGKLKGEATVSFDDPPSAKAAIDWFDGKEFSGNPIKVSFATRRADFNRGGGNGRGGRGRGGPMGRGGYGGGGSGGGGRGGFPSGGGGGGGQQRAGDWKCPNPTCENMNFSWRNECNQCKAPKPDGPGGGPGGSHMGGNYGDDRRGGRGGYDRGGYRGRGGDRGGFRGGRGGGDRGGFGPGKMDSRGEHRQDRRERPY | 4 fold | < 3 fold | –
untagged FUS (Fused in sarcoma), P35637 1-526 (natural protein) MASNDYTQQATQSYGAYPTQPGQGYSQQSSQPYGQQSYSGYSQSTDTSGYGQSSYSSYGQSQNTGYGTQSTPQGYGSTGGYGSSQSSQSSYGQQSSYPGYGQQPAPSSTSGSYGSSSQSSSYGQPQSGSYSQQPSYGGQQQSYGQQQSYNPPQGYGQQNQYNSSSGGGGGGGGGGNYGQDQSSMSSGGGSGGGYGNQDQSGGGGSGGYGQQDRGGRGRGGSGGGGGGGGGGYNRSSGGYEPRGRGGGRGGRGGMGGSDRGGFNKFGGPRDQGSRHDSEQDNSDNNTIFVQGLGENVTIESVADYFKQIGIIKTNKKTGQPMINLYTDRETGKLKGEATVSFDDPPSAKAAIDWFDGKEFSGNPIKVSFATRRADFNRGGGNGRGGRGRGGPMGRGGYGGGGSGGGGRGGFPSGGGGGGGQQRAGDWKCPNPTCENMNFSWRNECNQCKAPKPDGPGGGPGGSHMGGNYGDDRRGGRGGYDRGGYRGRGGDRGGFRGGRGGGDRGGFGPGKMDSRGEHRQDRRERPY | – | – | 4 fold
